{"source": "patent US20190099470", "target": "T1, Mouse MAVS, endogenous, on mitochondria of wild-type MEFs and BMDCs (UniProt Q8VCF0)", "T1 sequence": "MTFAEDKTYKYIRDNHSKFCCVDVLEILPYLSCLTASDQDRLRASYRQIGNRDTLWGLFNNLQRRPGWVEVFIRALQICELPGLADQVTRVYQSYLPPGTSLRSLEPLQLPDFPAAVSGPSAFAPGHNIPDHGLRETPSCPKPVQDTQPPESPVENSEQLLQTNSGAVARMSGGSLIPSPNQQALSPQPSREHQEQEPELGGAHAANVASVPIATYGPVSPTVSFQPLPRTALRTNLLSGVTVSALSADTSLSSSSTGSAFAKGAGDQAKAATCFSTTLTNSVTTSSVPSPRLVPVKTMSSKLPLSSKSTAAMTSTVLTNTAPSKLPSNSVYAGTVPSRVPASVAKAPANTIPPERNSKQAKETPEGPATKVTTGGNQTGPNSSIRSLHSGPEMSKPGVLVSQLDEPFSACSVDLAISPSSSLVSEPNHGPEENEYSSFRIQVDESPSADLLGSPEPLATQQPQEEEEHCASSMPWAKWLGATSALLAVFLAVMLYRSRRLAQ", "data": [{"substance": "Coxsackievirus B3 (CVB3) 3C^pro protease", "values": [{"measurement": "MAVS cleavage in CVB3-infected MEFs (immunoblotting), 3 h post-infection", "value": "the CVB3 3C^pro protease had produced only a small amount of cleaved MAVS"}, {"measurement": "MAVS cleavage in CVB3-infected MEFs (immunoblotting), 24 h post-infection", "value": "CVB3 3C^pro had significantly cleaved MAVS"}]}]}
